For orientation: Km means the concentration of substrate that gives half-maximal velocity. Broadly, the Vmax is the top rate of the reaction or transport when substrate is in excess. What is called kcat is the maximal rate divided by the concentration of active sites.

Substrate in the data set: O=[N+]([O-])c1ccc(O[C@@H]2OC[C@@H](O)[C@H](O)[C@H]2O)cc1
The data set can be described thus: purified protein. Format: biochemical, Caldicellulosiruptor owensensis. Conditions: 50 mM sodium citrate, 150 mM NaCl, pH 5.0, 75 °C, 0.05 to 2.4 mM pNPX.

B1: Coxyl A (Caldicellulosiruptor owensensis OL) (protein)
chain: MKIELYPEKTSGKINKFWTKCVGSCHAATALREDWRRQLRKCRQELGFEYLRCHGWLNDDMSVCFRNEDGKLWFSFFNIDTIIDFLLDIGMKPFIELSFMPEALASGTKTVFHYKGNITPPKSYEEWGQLVEELARHLVKRYGKNEVKEWFFEVWNEPNLKDFFWAGTMEEYFELYKHAAFAIKKVDPDLKVGGPASAIDAWIPELKEFCEKNNVPIDFISTHQYPTDLAFSTSSNMEEAMAKAKRGELADRVKKAIEEASPLPVYYTEWNNSPSPRDPYHDIPYDAAFIVKTIIDIVDLPLGCYSYWTFTDIFEECGQSSLPFHGGFGLLNIHGIPKPSYRAFQILDKLNGEKINAEAEDISPTIDFIATKNNNEIVLIISNHNVPLSPIENENILVTVNGLKGCKEISIERIDEYNANPKRKWVEMGSPEYLNKDQIEELIEASKPKKEVVSWRITGDNQLAFELNILPHSVLGVTIKTE
notes: His-tagged in pET-28b(+), E. coli BL21(DE3); homodimer
With B1, the Michaelis constant (Km) was found to be 1600 ± 100 µM, the Vmax was 3930 µmol/min/mg and the kcat stood at 3630 ± 122 s⁻¹.

Source of the values: paper PMC4134300, “Biochemical Characterization of Two Thermostable Xylanolytic Enzymes Encoded by a Gene Cluster of Caldicellulosiruptor owensensis” (PLoS ONE, 2014).
